Data reported in article PMC5026484.

Experiments:
[1] = target: bMERB domain (Rab binding domain) of Mical-cL, residues 534-683 (human) (UniProt O94851); assay: ITC; iTC200, 25°C; 400 µM Rab titrated into 20–40 µM bMERB domain in the cell; 20 mM Hepes pH 7.5, 50 mM NaCl, 2 mM MgCl2, 1 mM TCEP
Slp2-a = Slp2-a (UniProt Q99N50); settings: cited from earlier work
Slac2-a/melanophilin = Slac2-a/melanophilin (UniProt Q91V27); settings: cited from earlier work
Chain of Slac2-a/melanophilin (Q91V27 whole entry): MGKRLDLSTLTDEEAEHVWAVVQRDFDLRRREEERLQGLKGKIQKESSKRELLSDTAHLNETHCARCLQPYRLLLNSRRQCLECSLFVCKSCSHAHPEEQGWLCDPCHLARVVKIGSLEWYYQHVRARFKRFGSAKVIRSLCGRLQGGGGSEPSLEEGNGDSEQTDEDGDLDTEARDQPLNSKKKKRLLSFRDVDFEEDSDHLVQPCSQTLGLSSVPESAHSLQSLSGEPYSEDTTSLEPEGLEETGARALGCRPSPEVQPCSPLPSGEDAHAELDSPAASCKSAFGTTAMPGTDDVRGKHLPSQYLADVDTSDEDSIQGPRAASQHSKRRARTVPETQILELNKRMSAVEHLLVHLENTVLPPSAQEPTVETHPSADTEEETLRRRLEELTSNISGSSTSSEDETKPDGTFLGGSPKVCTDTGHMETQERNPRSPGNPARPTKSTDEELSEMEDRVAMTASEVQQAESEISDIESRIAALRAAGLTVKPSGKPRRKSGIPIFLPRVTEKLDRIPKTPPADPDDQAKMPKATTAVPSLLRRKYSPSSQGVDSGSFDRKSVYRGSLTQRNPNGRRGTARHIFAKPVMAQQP

Chain of Rab27 (Q9ERI2 2-221): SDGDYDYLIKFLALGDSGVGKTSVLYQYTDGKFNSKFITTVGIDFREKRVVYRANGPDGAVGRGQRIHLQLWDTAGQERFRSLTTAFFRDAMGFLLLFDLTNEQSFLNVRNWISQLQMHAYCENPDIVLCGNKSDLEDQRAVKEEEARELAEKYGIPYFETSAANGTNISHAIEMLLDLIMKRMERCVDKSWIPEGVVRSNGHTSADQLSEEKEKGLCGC
Chain of bMERB domain (Rab binding domain) of Mical-cL, residues 534-683 (human) (O94851 1796-1945): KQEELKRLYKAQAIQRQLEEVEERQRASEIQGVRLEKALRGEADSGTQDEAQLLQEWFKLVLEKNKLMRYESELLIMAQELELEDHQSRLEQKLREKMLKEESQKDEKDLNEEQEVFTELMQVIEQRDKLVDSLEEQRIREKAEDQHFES
Chain of Slp2-a (Q99N50 whole entry): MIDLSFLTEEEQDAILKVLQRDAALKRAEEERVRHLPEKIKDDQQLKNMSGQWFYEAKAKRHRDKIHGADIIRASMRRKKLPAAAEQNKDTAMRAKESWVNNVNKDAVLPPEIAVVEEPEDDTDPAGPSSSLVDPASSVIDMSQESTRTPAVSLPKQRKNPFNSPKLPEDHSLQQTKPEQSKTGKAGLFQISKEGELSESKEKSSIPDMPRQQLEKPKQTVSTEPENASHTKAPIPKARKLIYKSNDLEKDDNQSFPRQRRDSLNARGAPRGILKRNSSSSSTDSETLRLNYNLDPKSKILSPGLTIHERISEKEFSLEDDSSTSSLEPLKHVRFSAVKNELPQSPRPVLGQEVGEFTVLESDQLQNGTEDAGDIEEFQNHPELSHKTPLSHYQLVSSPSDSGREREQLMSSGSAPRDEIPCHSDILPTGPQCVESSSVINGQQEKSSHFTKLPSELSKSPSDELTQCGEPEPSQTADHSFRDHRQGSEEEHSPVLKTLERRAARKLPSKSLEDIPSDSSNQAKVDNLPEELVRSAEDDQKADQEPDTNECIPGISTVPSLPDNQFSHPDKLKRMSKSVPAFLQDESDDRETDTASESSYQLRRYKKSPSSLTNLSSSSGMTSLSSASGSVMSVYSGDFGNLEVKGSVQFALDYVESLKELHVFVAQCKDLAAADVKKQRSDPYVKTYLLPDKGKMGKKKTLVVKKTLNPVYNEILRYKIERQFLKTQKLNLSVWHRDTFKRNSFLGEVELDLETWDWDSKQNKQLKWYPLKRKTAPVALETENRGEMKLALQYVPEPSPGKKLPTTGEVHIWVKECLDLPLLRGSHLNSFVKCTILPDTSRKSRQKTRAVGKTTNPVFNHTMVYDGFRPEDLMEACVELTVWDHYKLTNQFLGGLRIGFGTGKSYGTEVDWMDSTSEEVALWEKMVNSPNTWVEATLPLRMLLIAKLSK

Substance | Kd [1] [nM] | Kd (Slp2-a) [nM] | Kd (Slac2-a/melanophilin) [nM]
Rab1R8N, chimera of Rab1b with the 4 N-terminal residues of Rab8 (from UniProt Q9H0U4 5-201) (natural protein) | 1100 |  | 
Rab27 (from UniProt Q9ERI2) |  | 13.4 | 112
